Stoichiometry N data for one substance are collected here from publication PMC4415690.

For this assay, the target named is TesS thioesterase (SP1408) of Streptococcus pneumoniae, C-terminal FLAG tag (Streptococcus pneumoniae). The assay is described as follows: SEC.

A word on the stoichiometry N: it is a count of units in the complex or per binding partner. As to “TesS thioesterase (SP1408) of Streptococcus pneumoniae, C-terminal FLAG tag (enzyme)”, the stoichiometry N was 2.
